Source: patent US20250171542A1 (ADEPT THERAPEUTICS, published 2025)

T1: CD80 (Sino Biological, Cat #10698-H08H) (UniProt P33681 35-242)
T1 sequence (looked up): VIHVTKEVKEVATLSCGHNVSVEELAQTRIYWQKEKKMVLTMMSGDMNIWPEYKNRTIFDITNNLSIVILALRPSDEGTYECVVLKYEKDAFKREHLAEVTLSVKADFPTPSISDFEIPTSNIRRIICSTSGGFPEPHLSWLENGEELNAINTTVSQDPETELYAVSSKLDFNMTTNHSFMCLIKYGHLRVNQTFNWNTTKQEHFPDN

T2: canine PD-L1 (Acro Biosystems, Cat #PDL-C52H4) (canine, UniProt E2RKZ5 19-236)
T2 construct: not shown: The vendor's tag, probably a polyhistidine tag
T2 sequence: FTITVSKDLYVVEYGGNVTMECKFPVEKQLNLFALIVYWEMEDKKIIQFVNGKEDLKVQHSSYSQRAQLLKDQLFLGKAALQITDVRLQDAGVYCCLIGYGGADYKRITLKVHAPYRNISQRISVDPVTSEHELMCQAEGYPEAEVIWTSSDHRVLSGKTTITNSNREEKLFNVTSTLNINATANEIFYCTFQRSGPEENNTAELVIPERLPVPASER

T3: CD86 (Sino Biological, Cat #10699-H08H) (UniProt P42081 24-245)
T3 sequence (looked up): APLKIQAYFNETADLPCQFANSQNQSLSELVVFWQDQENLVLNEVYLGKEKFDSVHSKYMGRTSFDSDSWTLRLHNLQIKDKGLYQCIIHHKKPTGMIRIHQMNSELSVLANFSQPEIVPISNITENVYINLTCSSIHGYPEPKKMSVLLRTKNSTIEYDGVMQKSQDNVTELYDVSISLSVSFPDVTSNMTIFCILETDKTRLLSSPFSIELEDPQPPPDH

T4: B7-H3 (Sino Biological, Cat #11188-H08H) (UniProt Q5ZPR3 29-461)
T4 sequence (looked up): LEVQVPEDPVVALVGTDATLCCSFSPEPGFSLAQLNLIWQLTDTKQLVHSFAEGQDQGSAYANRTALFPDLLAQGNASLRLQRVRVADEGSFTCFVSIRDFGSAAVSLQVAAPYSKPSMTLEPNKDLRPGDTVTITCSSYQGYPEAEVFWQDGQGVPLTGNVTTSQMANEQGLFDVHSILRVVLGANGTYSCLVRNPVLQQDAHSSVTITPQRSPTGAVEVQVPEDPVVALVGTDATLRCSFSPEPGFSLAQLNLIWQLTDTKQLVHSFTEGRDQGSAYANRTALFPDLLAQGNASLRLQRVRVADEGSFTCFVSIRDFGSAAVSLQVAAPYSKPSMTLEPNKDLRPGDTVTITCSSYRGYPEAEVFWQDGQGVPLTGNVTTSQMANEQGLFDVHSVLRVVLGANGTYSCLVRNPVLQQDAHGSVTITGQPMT

T5: PD-L2 (Sino Biological, Cat #10292-H08H) (UniProt Q9BQ51 20-219)
T5 sequence (looked up): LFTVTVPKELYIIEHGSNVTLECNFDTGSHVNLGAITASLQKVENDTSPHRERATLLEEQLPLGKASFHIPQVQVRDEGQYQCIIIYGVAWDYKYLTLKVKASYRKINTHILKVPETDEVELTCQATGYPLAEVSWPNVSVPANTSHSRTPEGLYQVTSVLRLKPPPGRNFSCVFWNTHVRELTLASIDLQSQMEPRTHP


How the values were obtained:
[1] = biological target: mouse PD-L1 (Sino Biological, Cat #50010-M08H) (mouse, UniProt Q9EP73 19-238); test: ELISA
mouse PD-L1 (Sino Biological, Cat #50010-M08H), sequence (Q9EP73 19-238 limits assumed, stated change not applied): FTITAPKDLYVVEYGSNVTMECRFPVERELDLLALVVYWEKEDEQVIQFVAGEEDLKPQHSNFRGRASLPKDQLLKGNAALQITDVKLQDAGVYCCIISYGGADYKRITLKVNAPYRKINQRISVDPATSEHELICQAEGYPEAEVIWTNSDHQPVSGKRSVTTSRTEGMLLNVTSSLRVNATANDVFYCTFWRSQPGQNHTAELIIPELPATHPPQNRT

[2] = biological target: T1, CD80 (Sino Biological, Cat #10698-H08H); test: ELISA
[3] = biological target: T6, rat PD-L1 (Sino Biological, Cat #80450-R08H) (rat, UniProt D4AE25 19-239); test: ELISA
T6 construct: not shown: The vendor's polyhistidine tag
T6 sequence (D4AE25 entry or part of it R08H R08H limits assumed): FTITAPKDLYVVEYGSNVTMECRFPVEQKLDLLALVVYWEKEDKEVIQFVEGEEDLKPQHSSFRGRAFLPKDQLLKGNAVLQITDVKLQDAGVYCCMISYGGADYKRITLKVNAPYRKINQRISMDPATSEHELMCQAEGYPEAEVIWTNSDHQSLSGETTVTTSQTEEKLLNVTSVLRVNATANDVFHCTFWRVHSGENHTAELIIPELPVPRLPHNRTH

[4] = biological target: T2, canine PD-L1 (Acro Biosystems, Cat …); test: ELISA
[5] = biological target: T3, CD86 (Sino Biological, Cat #10699-H08H); test: ELISA
[6] = biological target: T4, B7-H3 (Sino Biological, Cat #11188-H08H); test: ELISA
[7] = biological target: T5, PD-L2 (Sino Biological, Cat #10292-H08H); test: ELISA
[8] = biological target: T7, human PD-L1 expressed on cell surface (human, UniProt Q9NZQ7 19-290); test: flow cytometry, MDA-MB-231-GFP cells
T7 construct: also called cell surface PD-L1
T7 sequence (Q9NZQ7 19-290 limits assumed): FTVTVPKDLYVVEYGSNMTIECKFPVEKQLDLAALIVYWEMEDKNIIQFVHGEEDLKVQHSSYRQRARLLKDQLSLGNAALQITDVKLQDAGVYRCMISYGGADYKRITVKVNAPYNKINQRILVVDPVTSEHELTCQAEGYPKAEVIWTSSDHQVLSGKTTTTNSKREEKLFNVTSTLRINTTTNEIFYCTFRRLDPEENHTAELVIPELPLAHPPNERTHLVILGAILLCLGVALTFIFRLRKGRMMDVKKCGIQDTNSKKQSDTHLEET
Method: Cells were then resuspended in FACS buffer (1×DPBS/1% FBS) at 10⁶/ml concentration. One hundred microliter (100 μl) of cells were aliquoted into a single well in 96 well plates. The antibodies to be tested were serially diluted at 1:3 fold starting at 15 ug/mL and were then added into each well. The antibodies were mixed with cells and the mixtures were incubated on ice for 1 hour. […] After washing with FACS buffer, stained cells were resuspended at diluted […] (Biolegend, Cat #420404, used at 1:100 dilution) and analyzed on Guava 11HT (Luminex). Data was analyzed using Flowjo software.
(§1) Anti-HEL isotype control (Biolntron) was used as negative control.

[9] = biological target: T8, cynomolgus PD-L1-His (Sino Biological, Cat. 90251-C08H) (cynomolgus, UniProt Q9NZQ7 19-238 (human entry)); test: BLI (Gator), cynomolgus PD-L1
T8 construct: Bought protein; also called Cyno PD-L1; Cynomolgus PD-L1 ECD-His; not shown: His tag
T8 sequence (Q9NZQ7 other isoform, or with tags, fused parts or gaps C08H C08H limits assumed): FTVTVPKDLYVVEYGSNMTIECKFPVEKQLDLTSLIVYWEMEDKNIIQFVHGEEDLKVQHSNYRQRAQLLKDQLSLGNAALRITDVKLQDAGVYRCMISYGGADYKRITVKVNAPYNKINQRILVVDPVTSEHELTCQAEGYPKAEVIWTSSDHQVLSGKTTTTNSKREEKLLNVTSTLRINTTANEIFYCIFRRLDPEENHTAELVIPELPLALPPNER

[10] = biological target: T9, human PD-L1-His (Sino Biological, Cat #10084-H08H) (human, UniProt Q9NZQ7 19-238); test: ELISA, coated human PD-L1-His
T9 construct: Bought protein; also called human PD-L1 ECD-His; recombinant human PD-L1-His protein; not shown: His tag
T9 sequence (Q9NZQ7 19-238): as the sequence (Q9NZQ7 other isoform, or with tags, fused parts or gaps C08H C08H limits assumed) above, with T33A, S34A, N62S, Q68R, R82Q, L173F, A185T, I192T, L215H counted along it
Method: Briefly, Maxisorp plates (Nunc) were coated with 100 ul/well of 0.5 μg/ml human PD-L1-His (Sino Biological, Cat #10084-H08H) or cynomolgus PD-L1-His (Sino Biological, Cat. 90251-C08H) protein diluted in 1×PBS (GIBCO) overnight at 4° C. Plates were washed three times with 300 μl/well washing buffer (1×PBST, diluted from 20×PBST (Thermo Scientific) with distilled water)) and then blocked with 300 μl/well of blocking buffer (1×PBST/I % BSA) for 2 hours at RT on shaker (100 rpm). Plates were washed and added with 100 μl/well of testing antibodies, which were serial diluted with assay buffer (PBST/1% BSA). The antibodies were incubated at room temperature for 2 hours on plate shaker at 100 rpm. Plates were washed. One hundred microliter of horseradish peroxidase (HRP) conjugated detection antibody was added into each well and incubated at room temperature for 1 hour on plate shaker at 100 rpm. Plates were washed and added with 100 μl/well TMB substrate for color development at room temperature in dark for up to 10 minutes. After addition of 50 μl/well of stop solution (1N H₂SO₄), plates were read at 450 nm on a plate reader (SpectraMax M5).
as §1

Binder | binding result [1] | binding result [2] | binding result [3] | binding result [4] | binding result [5] | binding result [6] | binding result [7] | EC50 [8] | Kd [9] | koff [9] | kon [9] | EC50 [10]
32E2 (antibody, human IgG1, V domains shown) VH: QEQLEESGGDLVKPEGSLTLTCTASGFSFSSSYYMSWVRQAPGMGLEWIASISGGVTDNAYYASWAKGRFTVSKTSSTTVTLQLTSLTAADTATYFCARDSSSGYFFLLWGPGTLVTVSS VL: LVMTQTPSSVSAAVGGTVTINCQASQNIYSNLAWYQQKPGQRPKLLIFGASNLRSGVPSRFKGSGSGTEYTLTISDLECADAATYYCQEGYSIGNVDNPFGGGTEVVVK | no binding | no binding | no binding | no binding | no binding | no binding | no binding | 18.5 nM | 0.53 nM | 7e-05 s⁻¹ | 133000 M⁻¹ s⁻¹ | 0.106 nM
74A9 (antibody, human IgG1, V domains shown) VH: QSVEESGGRLVTPGTPLTLTCAVSGFSLSTYALGWVRQAPGKGLEWIGSISIGGATYYASWAKGRFTISKTSTTVDLKIASPTTEDTATYFCARNVDSIYLDAFHTWGPGTLVTVSL VL: DIVMTQTPASVEAAVGGTVTIKCQASQNIYNNLAWYQQKPGQPPKLLIYRASTLASGVPSRFKGSGSGTEYTLTISDLECDDAATYYCQTYYLTTTTNAFGGGTEVVVK | no binding | no binding | no binding | no binding | no binding | no binding | no binding | 0.34 nM | 3.09 nM | 0.000915 s⁻¹ | 296000 M⁻¹ s⁻¹ | 0.0229 nM
28B3 (antibody, human IgG1, V domains shown) VH: QSVEESGGRLVTPGTPLTLSCTASGFSLSSYYMIWVRQAPGKGLEYIGYVYTGSGNTWYASWAKGRFAISKASTTVDLMITSPTTEDTATYFCASGADGVYDWGWDIWGPGTLVTVSL VL: DIVMTQTPASVEAAVGDTVTIKCQASQSIYSLLAWYQQKPGQRPKLLIAGASNLESGVPSRFSGSGSGTEYTLTISALECADAATYYCQNNYDSGRIYGLAFGGGTEVVVK | no binding | no binding | no binding | no binding | no binding | no binding | no binding | 0.1 nM | 0.33 nM | 0.000132 s⁻¹ | 403000 M⁻¹ s⁻¹ | 0.0159 nM

The remaining lines, values ahead:

binding result [1] | binding result [2] | binding result [3] | binding result [4] | binding result [5] | binding result [6] | binding result [7] | EC50 [8] | Kd [9] | koff [9] | kon [9] | EC50 [10] | Binder
no binding | no binding | no binding | no binding | no binding | no binding | no binding | 0.34 nM | 0.23 nM | 8.1e-05 s⁻¹ | 350000 M⁻¹ s⁻¹ | 0.0171 nM | 33H7 (antibody, human IgG1, V domains shown) VH: QEQLVESGGGLVQPEGSLTVTCTASGFDLSRYFYMSWVRQAPGKGLEWIASISTGSDITDYASWAKGRFTISKTSSTTVTLQMTTLTAADTAIYFCARWTSGGGGFGLWGPGTLVTVSS VL: QVLTQTASPVSAAVGGTVTLNCQSSQSIYNNYLSWYQQRAGQPPKLLIYSTATLASGVPSRFKGSGSGTQFTLTISEIQCEDAATYYCQGYYSGYIWTFGGGTEVVVK
no binding | no binding | no binding | no binding | no binding | no binding | no binding | 1.19 nM | 0.93 nM | 0.000202 s⁻¹ | 218000 M⁻¹ s⁻¹ | 0.0399 nM | 33E8 (antibody, human IgG1, V domains shown) VH: QSLEESGGDLVKPGASLTLTCTASGFYFSSGYDMSWVRQAPGKGLEWIASIFTTSGSTWYANWAKGRFTISKTSSTTVTLQMTSLTDADTATYFCTKDGVGSFYMNLWGPGTLVTVSS VL: LVMTQTPASVEVAVGGTVTIKCQASQTIGSNLAWYQQRPGQPPKLLIYKAFTLASGVSSRFKGSGSGTQFTLTISGVECADAATYYCQQGATRINIDNAFGGGTEVVVK
no binding | no binding | no binding | no binding | no binding | no binding | no binding | 1.81 nM | ≤ 0.03 nM | ≤ 1e-05 s⁻¹ | 344000 M⁻¹ s⁻¹ | 0.016 nM | 73C8 (antibody, human IgG1, V domains shown) VH: QEQLEESGGGLVQPEGSLTLTCTVSGFSFSGDYYMSWVRQAPGKGLEWVASIYTGSLNTYYATWAKGRFTISLTSSTTVTLQMTSLTAADTATYFCARRNKNADYGHFDLWGPGTLVTVSS VL: YDMTQTPASVEVAVGGTVTIKCQASQSINDRLAWYQQKPGQPPKLLIYAASTLASGVPSRFRGSGSGTDFTLTISDLECADAATYYCQQGWTVSSLDNAFGGGTEVVAM
